According to article doi:10.1101/2023.06.24.546380:

Columns and labels:
[1] = target: Zonula occludens scaffold protein ZO1 (UniProt Q07157); assay: partitioning of actin into ZO1 surface condensates on supported lipid bilayers
[2] = target: intracellular domain of the tight junction receptor JAM-A (UniProt Q9Y624)
Sequence of UniProt Q9Y624 (Q9Y624 28-299): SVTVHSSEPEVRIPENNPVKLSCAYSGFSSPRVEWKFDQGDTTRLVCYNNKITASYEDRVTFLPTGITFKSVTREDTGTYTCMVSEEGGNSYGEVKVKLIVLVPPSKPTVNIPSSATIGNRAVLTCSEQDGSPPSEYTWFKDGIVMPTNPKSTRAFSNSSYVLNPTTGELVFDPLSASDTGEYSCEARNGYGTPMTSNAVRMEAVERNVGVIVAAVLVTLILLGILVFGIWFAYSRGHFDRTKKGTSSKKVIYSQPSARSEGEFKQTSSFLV

Sequence of UniProt Q07157 (Q07157 whole entry, the tested form may be a part): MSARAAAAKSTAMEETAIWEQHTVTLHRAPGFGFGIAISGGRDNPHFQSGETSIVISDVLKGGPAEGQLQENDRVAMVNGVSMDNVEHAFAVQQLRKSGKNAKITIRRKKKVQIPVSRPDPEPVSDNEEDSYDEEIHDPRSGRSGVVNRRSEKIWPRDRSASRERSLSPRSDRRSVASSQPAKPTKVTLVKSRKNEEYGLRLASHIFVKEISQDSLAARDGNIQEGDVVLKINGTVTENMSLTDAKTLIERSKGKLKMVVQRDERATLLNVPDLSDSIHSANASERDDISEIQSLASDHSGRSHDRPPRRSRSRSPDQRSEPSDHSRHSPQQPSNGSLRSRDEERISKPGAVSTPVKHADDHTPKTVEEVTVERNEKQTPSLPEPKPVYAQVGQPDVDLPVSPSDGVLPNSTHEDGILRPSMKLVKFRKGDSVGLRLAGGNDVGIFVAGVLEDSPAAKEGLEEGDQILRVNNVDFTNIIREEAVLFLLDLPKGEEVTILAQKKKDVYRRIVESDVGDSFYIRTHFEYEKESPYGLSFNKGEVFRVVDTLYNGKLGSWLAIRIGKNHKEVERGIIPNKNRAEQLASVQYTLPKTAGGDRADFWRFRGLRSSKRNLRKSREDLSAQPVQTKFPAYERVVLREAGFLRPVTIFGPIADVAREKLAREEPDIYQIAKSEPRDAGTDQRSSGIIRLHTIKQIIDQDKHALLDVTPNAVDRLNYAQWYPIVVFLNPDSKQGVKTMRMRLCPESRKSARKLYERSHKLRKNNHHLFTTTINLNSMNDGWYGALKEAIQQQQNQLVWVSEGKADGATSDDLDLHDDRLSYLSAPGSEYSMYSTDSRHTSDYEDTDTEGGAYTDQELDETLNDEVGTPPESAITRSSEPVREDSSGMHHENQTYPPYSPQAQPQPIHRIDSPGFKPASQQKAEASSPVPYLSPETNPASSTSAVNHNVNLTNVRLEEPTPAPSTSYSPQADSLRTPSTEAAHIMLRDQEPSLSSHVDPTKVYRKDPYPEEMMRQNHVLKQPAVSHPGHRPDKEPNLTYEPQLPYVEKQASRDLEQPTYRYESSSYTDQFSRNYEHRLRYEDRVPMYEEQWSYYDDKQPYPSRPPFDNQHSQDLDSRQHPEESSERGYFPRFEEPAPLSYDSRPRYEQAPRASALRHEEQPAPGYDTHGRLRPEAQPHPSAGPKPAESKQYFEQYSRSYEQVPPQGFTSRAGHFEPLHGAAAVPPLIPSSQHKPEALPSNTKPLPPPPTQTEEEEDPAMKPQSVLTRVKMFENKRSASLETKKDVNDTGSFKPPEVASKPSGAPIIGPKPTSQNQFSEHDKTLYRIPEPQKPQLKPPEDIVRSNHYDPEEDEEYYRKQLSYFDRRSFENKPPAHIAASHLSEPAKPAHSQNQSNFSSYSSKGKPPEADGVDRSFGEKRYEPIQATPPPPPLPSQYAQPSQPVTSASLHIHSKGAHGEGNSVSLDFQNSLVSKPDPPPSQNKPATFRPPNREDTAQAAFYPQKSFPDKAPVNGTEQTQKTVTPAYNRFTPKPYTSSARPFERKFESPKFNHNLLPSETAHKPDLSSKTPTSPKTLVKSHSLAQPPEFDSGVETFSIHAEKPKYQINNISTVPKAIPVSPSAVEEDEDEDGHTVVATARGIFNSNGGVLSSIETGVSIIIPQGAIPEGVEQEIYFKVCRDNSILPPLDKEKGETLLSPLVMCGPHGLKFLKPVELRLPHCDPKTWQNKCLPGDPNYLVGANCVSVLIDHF

| fold enrichment in the surface condensates [1] [fold] | fold enrichment in the dense ZO1 phase [2] [fold] | Substance |
| --- | --- | --- |
| 5 |  | G-actin-Alexa Fluor 647 (from UniProt P68135 1-377) (natural protein) |
|  | 2 | Zonula occludens scaffold protein ZO1 (from UniProt Q07157 1-1748) (natural protein) |
